17 variants from the supplement of paper PMC7125110 can be followed below.

First the molecules themselves.
B1: glmS ribozyme (parent)
chain: AUAAAAGCGCCAGAACUACAGAAAUGUAGUUGACGAGGAGGAGGUUUAUCGAAUUUUCGGCGGAUGCCUCCAAA

Holding throughout (conditions): with glucosamine-6-phosphate
The variants in data set [1] derive from B1. The data set is described as follows: kcat; higher = faster cleavage; RNA array. In a few lines: (§1)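 kcat and KM were obtained from weighted Michaelis–Menten fits across concentrations of kobs values. Those came from one- or two-exponential decay fits to per-tile medians normalised to baseline and to non-cleaving reference variants. The variants were barcoded ribozymes transcribed in situ by E. coli RNA polymerase on sequenced MiSeq chips and tracked through a hybridised Cy3 probe at 37 °C, with 40 μM to 10 mM glucosamine-6-phosphate in HEPES/KCl/Mg(OAc)2 buffer flowed in.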

In data set [2] the parent is B1. The data set is described as follows: KM; higher = weaker cofactor use; RNA array. In a few lines:
as §1

Variants of B1 are the subject of data set [3]. The data set is described as follows: self-cleavage kobs at 640 uM GlcN6P; higher = faster cleavage; RNA array. The method in brief: as §1
Data set [4] covers variants of B1. The data set is described as follows: self-cleavage kobs at 2500 uM GlcN6P; higher = faster cleavage; RNA array. In a few lines: as §1
The variants in data set [5] derive from B1. The data set is described as follows: self-cleavage kobs at 10000 uM GlcN6P; higher = faster cleavage; RNA array. In a few lines:
as §1

The variants in data set [6] derive from B1. The data set is described as follows: self-cleavage kobs at 40 uM GlcN6P; higher = faster cleavage; RNA array. The method in brief:
as §1

In data set [7] the parent is B1. The data set is described as follows: self-cleavage kobs at 160 uM GlcN6P; higher = faster cleavage; RNA array. The method in brief: as §1

± gives the standard error. For some assays here: Variants at the floor of the assay were thinned out.

Broadly, the kcat is the maximal rate divided by the concentration of active sites. The KM is the substrate concentration at which the rate is half of its maximum. For the variant A42U U56G, in the data set with glucosamine-6-phosphate [1], the kcat worked out at 0.000177 ± 1.9e-05 s⁻¹. In addition, the KM with glucosamine-6-phosphate [2] came to 3910 ± 850 µM. Further, the “self-cleavage kobs at 640 uM GlcN6P” value with glucosamine-6-phosphate [3] was 2.06e-05 ± 8.1e-06 s⁻¹. Also, the “self-cleavage kobs at 2500 uM GlcN6P” value with glucosamine-6-phosphate [4] came out at 7.54e-05 ± 1.2e-05 s⁻¹. Moreover, in the data set with glucosamine-6-phosphate [5], the “self-cleavage kobs at 10000 uM GlcN6P” value amounted to 0.000125 ± 1.7e-05 s⁻¹.
G29U A64G: the kcat with glucosamine-6-phosphate [1] is 0.00507 ± 0.0025 s⁻¹. The “self-cleavage kobs at 40 uM GlcN6P” value with glucosamine-6-phosphate [6] amounted to 0.000212 ± 3.2e-05 s⁻¹. Besides, in the data set with glucosamine-6-phosphate [7], the “self-cleavage kobs at 160 uM GlcN6P” value stood at 0.000495 ± 0.00011 s⁻¹. Besides, in the data set with glucosamine-6-phosphate [3], the “self-cleavage kobs at 640 uM GlcN6P” value is 0.000939 ± 0.0002 s⁻¹. In addition, in the data set with glucosamine-6-phosphate [4], the “self-cleavage kobs at 2500 uM GlcN6P” value worked out at 0.00221 ± 0.00045 s⁻¹. Further, in the data set with glucosamine-6-phosphate [5], the “self-cleavage kobs at 10000 uM GlcN6P” value is 0.00594 ± 0.00078 s⁻¹.
Consider A33U A53G C70U, for which, in the data set with glucosamine-6-phosphate [1], the kcat stood at 0.000178 ± 1.5e-05 s⁻¹. Further, in the data set with glucosamine-6-phosphate [5], the “self-cleavage kobs at 10000 uM GlcN6P” value was 5.75e-05 ± 9.2e-06 s⁻¹.
For A12U A15U A39C, in the data set with glucosamine-6-phosphate [1], the kcat was determined as 0.000282 ± 8.6e-05 s⁻¹. In addition, in the data set with glucosamine-6-phosphate [7], the “self-cleavage kobs at 160 uM GlcN6P” value amounted to 6.33e-05 ± 1.3e-05 s⁻¹. Also, in the data set with glucosamine-6-phosphate [3], the “self-cleavage kobs at 640 uM GlcN6P” value was found to be 9.89e-05 ± 1.6e-05 s⁻¹. Besides, in the data set with glucosamine-6-phosphate [4], the “self-cleavage kobs at 2500 uM GlcN6P” value turned out to be 0.000199 ± 3.2e-05 s⁻¹. Besides, in the data set with glucosamine-6-phosphate [5], the “self-cleavage kobs at 10000 uM GlcN6P” value was found to be 0.000374 ± 8.8e-05 s⁻¹.
As to A15G G40U, the kcat in the data set with glucosamine-6-phosphate [1] is 0.00552 ± 0.00099 s⁻¹. Moreover, the KM in the data set with glucosamine-6-phosphate [2] was found to be 1330 ± 360 µM. In addition, the “self-cleavage kobs at 40 uM GlcN6P” value with glucosamine-6-phosphate [6] came out at 0.000202 ± 2.1e-05 s⁻¹. Also, the “self-cleavage kobs at 160 uM GlcN6P” value in the data set with glucosamine-6-phosphate [7] is 0.000466 ± 6.2e-05 s⁻¹. Also, the “self-cleavage kobs at 640 uM GlcN6P” value with glucosamine-6-phosphate [3] stood at 0.00181 ± 0.0002 s⁻¹. In addition, in the data set with glucosamine-6-phosphate [4], the “self-cleavage kobs at 2500 uM GlcN6P” value was 0.00448 ± 0.00068 s⁻¹. Also, the “self-cleavage kobs at 10000 uM GlcN6P” value with glucosamine-6-phosphate [5] worked out at 0.00473 ± 0.00045 s⁻¹.
Turning to C16A A39C, the kcat with glucosamine-6-phosphate [1] was determined as 0.000305 ± 1.9e-05 s⁻¹. Moreover, the KM in the data set with glucosamine-6-phosphate [2] amounted to 4340 ± 490 µM. The “self-cleavage kobs at 640 uM GlcN6P” value with glucosamine-6-phosphate [3] amounted to 3.69e-05 ± 1.3e-05 s⁻¹. Also, the “self-cleavage kobs at 2500 uM GlcN6P” value in the data set with glucosamine-6-phosphate [4] worked out at 0.000114 ± 1.5e-05 s⁻¹. Besides, the “self-cleavage kobs at 10000 uM GlcN6P” value in the data set with glucosamine-6-phosphate [5] came to 0.00021 ± 2.9e-05 s⁻¹.
G38U C67U: the kcat with glucosamine-6-phosphate [1] was under 1e-05 s⁻¹.
For G37A G44U A53U, in the data set with glucosamine-6-phosphate [1], the kcat came out at 9.52e-05 ± 3e-05 s⁻¹. Moreover, the “self-cleavage kobs at 2500 uM GlcN6P” value in the data set with glucosamine-6-phosphate [4] was found to be 6.43e-05 ± 1.9e-05 s⁻¹. Also, the “self-cleavage kobs at 10000 uM GlcN6P” value with glucosamine-6-phosphate [5] amounted to 7.31e-05 ± 2.3e-05 s⁻¹.
U46A U54C: the kcat in the data set with glucosamine-6-phosphate [1] was 0.00402 ± 0.0012 s⁻¹. Moreover, in the data set with glucosamine-6-phosphate [2], the KM was found to be 3310 ± 1300 µM. Moreover, in the data set with glucosamine-6-phosphate [6], the “self-cleavage kobs at 40 uM GlcN6P” value is 4.31e-05 ± 1.1e-05 s⁻¹. Further, the “self-cleavage kobs at 160 uM GlcN6P” value with glucosamine-6-phosphate [7] stood at 0.000153 ± 3.9e-05 s⁻¹. Besides, the “self-cleavage kobs at 640 uM GlcN6P” value with glucosamine-6-phosphate [3] stood at 0.000982 ± 0.00017 s⁻¹. Moreover, the “self-cleavage kobs at 2500 uM GlcN6P” value with glucosamine-6-phosphate [4] came to 0.00157 ± 0.00051 s⁻¹. Also, the “self-cleavage kobs at 10000 uM GlcN6P” value with glucosamine-6-phosphate [5] was determined as 0.00295 ± 0.00051 s⁻¹.
G32C G37A U55A C67A C68A: the kcat with glucosamine-6-phosphate [1] stood at 4.68e-05 ± 2.3e-05 s⁻¹. The “self-cleavage kobs at 640 uM GlcN6P” value with glucosamine-6-phosphate [3] was found to be 7.47e-05 ± 3.5e-05 s⁻¹.
As to G37A U55A, in the data set with glucosamine-6-phosphate [1], the kcat stood at 0.00489 ± 0.0022 s⁻¹. In addition, in the data set with glucosamine-6-phosphate [6], the “self-cleavage kobs at 40 uM GlcN6P” value came out at 0.000128 ± 5.4e-05 s⁻¹. In addition, the “self-cleavage kobs at 160 uM GlcN6P” value in the data set with glucosamine-6-phosphate [7] came to 0.000133 ± 2.8e-05 s⁻¹. Moreover, in the data set with glucosamine-6-phosphate [3], the “self-cleavage kobs at 640 uM GlcN6P” value is 0.000667 ± 0.00015 s⁻¹. Besides, the “self-cleavage kobs at 2500 uM GlcN6P” value with glucosamine-6-phosphate [4] came to 0.00226 ± 0.00037 s⁻¹. For the same variant, the “self-cleavage kobs at 10000 uM GlcN6P” value with glucosamine-6-phosphate [5] is 0.00286 ± 0.00068 s⁻¹.
U54A A64U: the catalytic constant (kcat) with glucosamine-6-phosphate [1] was found to be 0.000124 ± 1.2e-05 s⁻¹. Further, the “self-cleavage kobs at 640 uM GlcN6P” value with glucosamine-6-phosphate [3] was 7.79e-05 ± 2.6e-05 s⁻¹. For the same variant, the “self-cleavage kobs at 2500 uM GlcN6P” value with glucosamine-6-phosphate [4] was 7.51e-05 ± 2.5e-05 s⁻¹. Besides, in the data set with glucosamine-6-phosphate [5], the “self-cleavage kobs at 10000 uM GlcN6P” value came to 0.00012 ± 1.1e-05 s⁻¹.
G29C C61G: in the data set with glucosamine-6-phosphate [1], the kcat was 2.64e-05 ± 1e-05 s⁻¹. Further, the “self-cleavage kobs at 40 uM GlcN6P” value with glucosamine-6-phosphate [6] is under 1e-05 s⁻¹.
C58A C61A: the kcat in the data set with glucosamine-6-phosphate [1] turned out to be 1.11e-05 ± 1.1e-06 s⁻¹. For the same variant, the “self-cleavage kobs at 10000 uM GlcN6P” value in the data set with glucosamine-6-phosphate [5] was under 1e-05 s⁻¹.
In the case of A39U A53G C67G, the kcat in the data set with glucosamine-6-phosphate [1] is 0.00494 ± 0.00087 s⁻¹. Moreover, in the data set with glucosamine-6-phosphate [2], the KM stood at 963 ± 280 µM. Moreover, the “self-cleavage kobs at 40 uM GlcN6P” value with glucosamine-6-phosphate [6] was 0.000219 ± 3.9e-05 s⁻¹. In addition, the “self-cleavage kobs at 640 uM GlcN6P” value with glucosamine-6-phosphate [3] was 0.00186 ± 0.00023 s⁻¹. For the same variant, the “self-cleavage kobs at 2500 uM GlcN6P” value with glucosamine-6-phosphate [4] amounted to 0.00346 ± 0.00056 s⁻¹. In addition, the “self-cleavage kobs at 10000 uM GlcN6P” value with glucosamine-6-phosphate [5] worked out at 0.00612 ± 0.0016 s⁻¹.
U30G C67U: the kcat in the data set with glucosamine-6-phosphate [1] came out at 0.00191 ± 0.00047 s⁻¹. Moreover, in the data set with glucosamine-6-phosphate [2], the Michaelis constant (KM) is 924 ± 380 µM. Besides, in the data set with glucosamine-6-phosphate [6], the “self-cleavage kobs at 40 uM GlcN6P” value was found to be 9.9e-05 ± 2.5e-05 s⁻¹. In the data set with glucosamine-6-phosphate [7], the “self-cleavage kobs at 160 uM GlcN6P” value worked out at 0.000289 ± 5.9e-05 s⁻¹. Also, the “self-cleavage kobs at 640 uM GlcN6P” value in the data set with glucosamine-6-phosphate [3] was 0.000697 ± 0.00011 s⁻¹. Moreover, the “self-cleavage kobs at 2500 uM GlcN6P” value with glucosamine-6-phosphate [4] was 0.00139 ± 0.00022 s⁻¹. Also, in the data set with glucosamine-6-phosphate [5], the “self-cleavage kobs at 10000 uM GlcN6P” value worked out at 0.00378 ± 0.0013 s⁻¹.
Turning to A14U C61A C70A, the kcat with glucosamine-6-phosphate [1] stood at 1.21e-05 ± 3.3e-06 s⁻¹.
